Measurements reported in the domain aggregation screens of Martell et al. (2025).

Experiment: soluble fraction after stress (log2 fold change); higher = more stays soluble; pooled small domains, quantitative proteomics
Conditions: stress: 75 degC
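Further: 20 min heating vs room temperature control held 20 min.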

Sequence | soluble fraction (log2)
HMSVKSVSLRKISYKVRRGDSLYNIAKNFSLSINDITHWNSINKKSYLQPGQRLTLYINPRN | -2.18
HMSVKVFRDQILLNNDSDKMLQLSFSNLFGQKVLETSISPGKSAISTGNLPPGIYFITTSPATGVMRVII | -1.78
HMSVLRLGNRGPDVRKLQLLLNSTLVPSPQLTVDGDFGKRTEQAVVTFQQMRGLPQDGIVGQRTWALLGQT | -0.652
HMSVLSVASKNQAINPGQVVALLKDGIKLNDDGRVEILDNNNNIRYNEKGNLLSIEERVKEFLDANPHFRQ | -0.399
HMSVLVLPMLKELTHEDREVVELFYLNDMSVREIALIISVPIGTVKSRLHRARAQLKHQIVNLNQ | -3.76
HMSVPVNAPMPGTILDIKVKAGAAVKAGDVVMILEAMKMENEISAPQDGTIASIDVRKGDTVNSGDVLYTM | -0.198
HMSVSVNAPMPGNILDVRAKTGESIQKGQVIVILEAMKMENEIMAPQDGKISSINTSKGSTVNSGDLLFTM | -0.106
HMSVTMPNLVGLDEQTAVTRINSSNLSYGSTNYVHSDHEAGVVFKQSTPAYTEVDEHTKIYIWVSLGPEE | -0.729
HMSVTPLLDATEKDKTKYRDLWLVAVVKNGVNYARKYKFGYVYAWLYRHDRDWLLQVNNQHKIPNIT | 0.0707
HMSVTVMVLRAAGDIQAGTEITDKHLATVEVGEYGLPEGIINDKDSILGKIALTDIAKGDYFFSQKLG | -0.954
HMSVVKPIYIGMMTSEVEAIMGKPFEVITNNNSKNNQLWIYKYQDKRSVMLTFTNYKLIKIE | -2.7
HMSWDNELLERAHKIIELYPQKRSALGPLLYLAQEKDGFISDDSIVEISNLVDITEVQVKSVSSFYSMY | -0.903
HMSWGDVKLTMWGAEEDQTMLREMADAFIEQNADKGNVTIEIGVQSESSAKDTVLADPESAADVFA | 0.242
HMSWRWVPVSGAYTTSALEAAGLTRAFDDQAAAEEWLGLFFDDLLREGVGEVSLYEEDRLVYGPMSL | -2.49
HMSYANVEWRDFLNSLDEKYRIVVILYYVQGFKTREIAEILQINQSTVRGRLAKAREKLEQQYN | -1.4
HMSYFIFDGVLNLGKQYELKGEESSHITKSRRLRPGDSFLIQDQEGQRFEAILKSFDRNSLIFTPHKPTA | -0.722
HMSYFNEYEVGDTIRVVNGPLADQISTITAIDKEKGLVNISTVFFGRENNVQVSINDIEKYN | 0.0153
HMSYGDLTGRTVVITGASKGIGARASRVLAQAGASVVGLARSVDELTALKYDLENDGLSFDFG | ≥ 1.04
HMSYKYYSTERPLMPGSFPKPQGNTVLNIENFNDRSYVGKIGREAWGFIEYEKPISPVLLDDYELVAA | -0.235
HMSYLELENLAEDIKATYDNLSTDLREVFRLSDIEGLSYEEISNKMNIPIGTVRSRLHRARETLLRIFNN | -1.39
HMSYPTAVTQTTLNVRTGPGTQYERLGAFVENTEVIVLTRQPEWIQVRGMSGDKAIIGWVSARYLQMNP | -2.21
HMSYQNKLNYLINAFGGADNFQKLLGVGPSAISNYKSRKHLPLNQAKRLSKIAPQFGFSLDPHSLQIST | -0.856
HMSYQSYDKVVGDTFFEANLKAESKFGKGNFEIISTRRVKHPIYLGFGHKELVELTIGIHDP | -1.33
HMSYTAYLSQELGDMSREIQSELLKKGYNGSSSFTIVRTYMGSSVKFSVYNANNGELITSKTINM | -2.9
HMSYTDIILKMSNVNFLTKVNFTNSEKNKNIKNGNFLIKKGKNRITAAFDYKDNELVISKSNLRNTFL | -1.18
HMTAEVIYVDVGGEVNQPSVVELTDGSRVTDAIAAAGGLTEKADLTDINRAAFVSDGEKIFIPSQEE | 0.4
HMTAFAGLTPRERDLLELIAQGRDNAQIAATLGVSDKTVRNHITHIFAKLEVETRAQAIVLARNAGFGRA | -1.12
HMTAGYFTRGSHQDEVLRIQGTPSGVNKYSDHEVWNYGLSSVDISLRDRRVTEWNNISGNLKV | -0.149

Sequence | soluble fraction (log2)
HMTAKRELILRVFMDSNGKLLSIDDVFMEMRKKRSHRTSKMTVKRAIDLLVDLGLLKEVLFDDDNIKYEYV | -1.26
HMTALISGNKAMQMLELSRHSFEKIVKDGLLSIVHEGDKKYYEIGEVEAFMGSDTYKELVNGV | 0.449
HMTALSIGTVVRFTGDRHYISSTGDTGYPASPGLAKITSINPGSKHPYHLIHIDNTSNVYGWVNKQDIIT | -1.17
HMTAQLSITLNGETRRAAAGSIADLVRSLELDPAKVAVERNGLIVPRSTLAEVALGDGDVLEIVHFV | -1
HMTASTLSYSKFNEQVVQNQVRKVTFQGEQVKGELISGQTFTTTVPANDTTLWPMLKAHNVDTAVTAA | 0.186
HMTASVTDAMFELIDELPKLGKTSFRQLTADLVDRLQVVVTFLAVLELYKQGHVELDQSERFGDITVVWTG | 0.208
HMTATIEEVNELTQSARVNINVPYAAKDEAKAYGAKWDDVERTWYTTGENYAQNKDFFDGFNPTAS | 0.583
HMTATWLTYYRIKAGLTQKRLAELAGLNIRQVQKIENGETLAGNTTAKNLLALADALGIDPHKL | -2.15
HMTAYENSIPLNWVIQKGDAKGLPLSANTARLLIDIVGIDLMDLDHELEKISLYLSGESITEEMIKEHIRG | -0.709
HMTDAELDLLTPREQEVLQLIARGYLYKEIARRLGISVKTVEAHASSVLRKLQLSTRHELSHWAAQRH | -0.0813
HMTDAYEVLDLNREASDEEIKKRYRELIREHHPDTLIAKGVPQEFVDLANDKMAAINAAYDRIEKDRGL | 0.56
HMTDEEKENLREKMLEAGFPLLKQYGMTHTSVAKITQAAGIAVGTFYSFWKNKEAYMADLIGYHRR | -1.27
HMTDITSAITRLNKYNKSGTPLTIDSVTPEALQTLQAKVSSAFEIGAVNQQTYDDVTKDIATLQQYLSSA | 0.378
HMTDIVPNLIGKSLKDAIQSVEKSNLKAIFDGHGIVVSQQPRPGSPIPARKIMKVTLSPDYR | -0.13
HMTDKLEEEAKKKAMEDALADEMNISKTIVHDGIRELARIGFLDVISRKGIYVADYTFTGNLETLLAVIRY | -0.848
HMTDLDDFAARLKTLTDGRASTPRLRDGVMMLSLDVGGLGPDQRDGLIAAIREGGLTVPGVSDVRIVMT | -0.125
HMTDLEDDEKKVYRLIVESGEGIDFDTLSERSGFSATELPSILLFLMMKEMIDELPGKIYRYSE | -0.0725
HMTDMYLTYQELRHLGVSQNLISMWKSRKSIDFHMLGGTLYVRYMSIPEQTRSKLALQNVERVYNSRE | -2.6
HMTDRINIGDVVTIISKDREDSQIVYMRYHKGKLSILGELILNKTKNDTVDFKGRTYDIATIEKS | -2.22
HMTDVHFIDVPVSEGHPWIGLTVKDLNLPPGTLLVFLNHPGEKSTVPNGDTVLREGDVLVLGATAYAG | -0.384
HMTDYKTNLQEFLQQDGEVEIEYKLLAEVGPSHARQFEVDVMMGDRVLGSGVGRNKKAAEQAAAKVALSKL | -0.0613
HMTDYVPTIGTKISKDFGSKGYFEGEVVSGPHNVTVEGDNMVVWKVQYEDGDREEMTASEIAHWKA | -0.104
HMTEAIDVPNLVGQNYSDVKSNSSYKFNWDIINVYDSGKPEGEIIKQEPEAGSKKVKENAVITLTVN | 0.538
HMTEDNDLETIAYDILKERNLNNININVKNGVLNIYGKTETLKEKREIEKILSSLNVSKINNLIKI | 0.258
HMTEDQDWAIFKQKLKAQTEIDLDLYKEPQMKHRIKNLIQNAGFDSYVQYFDYVYLNQDRLAAFLENLTV | -0.535
HMTEEELLERLDAVITEYKGKPGALIPVLQLAQGIFGYLPEVALKHIARQLDKPYSEVAGVVSFYSFFTT | 0.291
HMTEFDVIMKSFGSEKIKVIKEVRAITGLGLAEAKALVEGVPAKIKEQVSKDDAEALKKQLEAVGAEVEL | -0.0848
